The source of these data is PMC5386341 (Blood Cancer Journal, 2017).

One may read the Kd as the concentration at which binding is half-saturated.

Test [1] has as its target T1, cynomolgus monkey CD47 (Macaca fascicularis, UniProt A0A2K5X4I2).
T1 construct: CD47, cynomolgus monkey; also called cyno CD47
As to the kind of experiment: not stated; binding affinity of IgG2σ mAbs to human and cynomolgus monkey CD47; method is described only in the Supplementary section.

Test [2] addresses T2, human CD47 (human, UniProt Q08722).
T2 construct: CD47, human; the methods are in the Supplementary section; also called integrin-associated protein
The test is described as above.

The target of test [3] is T3, human CD47 (human, UniProt Q08722).
T3 construct: CD47, human; The crystal structures used the human CD47 extracellular domain with a C15G mutation; also called integrin-associated protein
The test can be described thus: not stated; binding affinity of IgG2σ mAbs to human and cyno CD47; the method stands in the Supplementary Information, not shown.

Test [4] deals with T4, cynomolgus monkey CD47 (Macaca fascicularis, UniProt A0A2K5X4I2).
T4 construct: CD47, cynomolgus monkey; also called cyno CD47
Described as above.

B1: IgG2σ C47B222 (antibody, V domains shown)
VH: EVQLVQSGAEVKKPGESLKISCKGSGYSFTDYWIGWVRQMPGKGLEWMGIIYPGDSDTRYSPSFQGQVTISADKSISTAYLQWSSLKASDTAVYYCARVGRFASHQLDYWGQGTLVTVSS
VL: EIVLTQSPATLSLSPGERATLSCRASQSVNNRLAWYQQKPGQAPRLLIHWASTRAIGIPARFSGSGSGTDFTLTISSLEPEDFAVYYCQQGASWPFTFGQGTKVEIK
notes: Human IgG2σ (effector function silent Fc)
For B1, the values for the Kd with cynomolgus monkey CD47 [1] and with human CD47 [2] were 0.84 nM and 1.12 nM, respectively.

B2: IgG2σ C47B161 (antibody, V domains shown)
VH: QVQLVQSGAEVKKPGASVKVSCKASGYTFTDYNMHWVRQAPGQRLEWMGDIYPYNGGTGYNQKFKGRVTITRDTSASTAYMELSSLRSEDTAVYYCARGGWHAMDSWGQGTLVTVSS
VL: DIVMTQSPLSLPVTPGEPASISCRSRQSIVHTNRYTYLAWYLQKPGQSPQLLIYKVSNRFSGVPDRFSGSGSGTDFTLKISRVEAEDVGVYYCFQGSHVPYTFGGGTKLEIK
notes: as for B1
In the case of B2, the dissociation constant (Kd) was 2.96 nM with cynomolgus monkey CD47 [1] and 2.87 nM with human CD47 [2].

B3: anti-CD47 mAb B6H12.2 engineered with the human IgG2σ Fc (antibody, V domains shown)
VH: EVKLVESGGDLVKPGGSLKLSCAASGFTFSGYGMSWVRQTPDKRLEWVATITSGGTYTYYPDSVKGRFTISRDNAKNTLYLQIDSLKSEDTAIYFCARSLAGNAMDYWGQGTSVTVSS
VL: DIVMTQSPATLSVTPGDRVSLSCRASQTISDYLHWYQQKSHESPRLLIKFASQSISGIPSRFSGSGSGSDFTLSINSVEPEDVGVYYCQNGHGFPRTFGGGTKLEIK
notes: heavy chain of B6H12.2 with a human IgG2σ Fc; light chain of B6H12.2; also called IgG2σ B6H12.2
Regarding B3, the Kd in the test with human CD47 [3] turned out to be 0.5 nM; with cynomolgus monkey CD47 [4], 0.6 nM.
